In PMC11705074:
Read-outs that look alike come from different tables or passages of the source.

Key:
HhpR [1] = target: T1, HhpR (Pyrococcus yayanosii A1, UniProt F8AFU3 1-281); assay: fluorescence polarization
T1 sequence: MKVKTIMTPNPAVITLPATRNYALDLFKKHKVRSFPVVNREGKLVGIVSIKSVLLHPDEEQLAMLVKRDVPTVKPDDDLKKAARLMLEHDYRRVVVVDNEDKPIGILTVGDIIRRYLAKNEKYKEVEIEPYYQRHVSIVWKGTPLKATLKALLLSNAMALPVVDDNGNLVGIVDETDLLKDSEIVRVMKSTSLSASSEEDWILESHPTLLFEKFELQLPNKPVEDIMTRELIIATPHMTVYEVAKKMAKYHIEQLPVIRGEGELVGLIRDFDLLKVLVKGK

HhpR [2] = target: T1, HhpR; assay: fluorescence polarization; remark: listed apart in the source

B1: 44-bp Phhp (dsDNA)
DNA 1: CATATAAAAATTGTTGGGCAAATCTGCCCAGAAAAGCTTAAAAG
DNA 2: CTTTTAAGCTTTTCTGGGCAGATTTGCCCAACAATTTTTATATG
Question: B1 was tested. Which Kd (HhpR [1]) did it give?
Answer: 0.65 ± 0.37 µM

Question: And the Kd (HhpR [2])?
Answer: 1.9 ± 0.4 µM
